Where “and” joins values, the source holds several entries; their conditions need not be identical. Equal entries are not always repeated.
Biological target: T1, LpoB(sol) (signal sequence and lipid anchor of LpoB replaced by an oligohistidine tag)
T1 construct: also called His-LpoB(sol); source: E. coli BL21(DE3) with pET28LpoB, purified (HisTrap, thrombin, HiTrap Q flow-through, Superdex 200)
Assay: SPR; IBIS-MX96; PBP1B Gly55AzF immobilised through its azide on a SensEye P-NH2 sensor coated with sulfo-dibenzylcyclooctyne-NHS ester, blocked with azidoethanol; LpoB injected at different concentrations; running buffer 10 mM Tris/maleate pH 7.5, 150 mM NaCl, 0.05 % Triton X-100; KD from maximum RU against concentration, one-site saturation
Conditions: both partners purified

Kd: 0.71 to 0.97 µM and 0.84 µM
B1: PBP1B Gly55AzF (N-terminal His6-tagged PBP1Bγ with p-azidophenylalanine in place of Gly55) (enzyme)
chain: MPRKGKGKGKFRKPRGKRGWLWLLLKLAIVFAVLIAIYGVYLDQKIRSRIDGKVWQLPAAVYGRMVNLEPDMTISKNEMVKLLEATQYRQVSKMTRPGEFTVQANSIEMIRRPFDFPDSKEGQVRARLTFDGDHLATIVNMENNRQFGFFRLDPRLITMISSPNGEQRLFVPRSGFPDLLVDTLLATEDRHFYEHDGISLYSIGRAVLANLTAGRTVQGASTLTQQLVKNLFLSSERSYWRKANEAYMALIMDARYSKDRILELYMNEVYLGQSGDNEIRGFPLASLYYFGRPVEELSLDQQALLVGMVKGASIYNPWRNPKLALERRNLVLRLLQQQQIIDQELYDMLSARPLGVQPRGGVISPQPAFMQLVRQELQAKLGDKVKDLSGVKIFTTFDSVAQDAAEKAAVEGIPALKKQRKLSDLETAIVVVDRFSGEVRAMVGGSEPQFAGYNRAMQARRSIGSLAKPATYLTALSQPKIYRLNTWIADAPIALRQPNGQVWSPQNDDRRYSESGRVMLVDALTRSMNVPTVNLGMALGLPAVTETWIKLGVPKDQLHPVPAMLLGALNLTPIEVAQAFQTIASGGNRAPLSALRSVIAEDGKVLYQSFPQAERAVPAQAAYLTLWTMQQVVQRGTGRQLGAKYPNLHLAGKTGTTNNNVDTWFAGIDGSTVTITWVGRDNNQPTKLYGASGAMSIYQRYLANQTPTPLNLVPPEDIADMGVDYDGNFVCSGGMRILPVWTSDPQSLCQQSEMQQQPSGNPFDQSSQPQQQPQQQPAQQEQKDSDGVAGWIKDMFGSN
modifications: p-azidophenylalanine in place of Gly55; coupled through this azide to dibenzylcyclooctyne on the chip surface
